Data as given in PMC3769225, “Modulation of Global Low-Frequency Motions Underlies Allosteric Regulation: Demonstration in CRP/FNR Family Transcription Factors” (PLoS Biology, 2013).

B1: Catabolite Activator Protein (CAP) of Escherichia coli, wild-type (natural protein, UniProt P0ACJ8 1-210, looked up)
chain: MVLGKPQTDPTLEWFLSHCHIHKYPSKSTLIHQGEKAETLYYIVKGSVAVLIKDEEGKEMILSYLNQGDFIGELGLFEEGQERSAWVRAKTACEVAEISYKKFRQLIQVNPDILMRLSAQMARRLQVTSEKVGNLAFLDVTGRIAQTLLNLAKQPDAMTHPDGMQIKITRQEIGQIVGCSRETVGRILKMLEDQNLISAHGKTIVVYGTR
notes: also called CAP wild-type
B2: CAP V140A (natural protein, Escherichia coli, UniProt P0ACJ8 1-210, looked up)
chain: MVLGKPQTDPTLEWFLSHCHIHKYPSKSTLIHQGEKAETLYYIVKGSVAVLIKDEEGKEMILSYLNQGDFIGELGLFEEGQERSAWVRAKTACEVAEISYKKFRQLIQVNPDILMRLSAQMARRLQVTSEKVGNLAFLDATGRIAQTLLNLAKQPDAMTHPDGMQIKITRQEIGQIVGCSRETVGRILKMLEDQNLISAHGKTIVVYGTR
B3: CAP H160L (natural protein, Escherichia coli, UniProt P0ACJ8 1-210, looked up)
chain: MVLGKPQTDPTLEWFLSHCHIHKYPSKSTLIHQGEKAETLYYIVKGSVAVLIKDEEGKEMILSYLNQGDFIGELGLFEEGQERSAWVRAKTACEVAEISYKKFRQLIQVNPDILMRLSAQMARRLQVTSEKVGNLAFLDVTGRIAQTLLNLAKQPDAMTLPDGMQIKITRQEIGQIVGCSRETVGRILKMLEDQNLISAHGKTIVVYGTR
B4: CAP V140L (natural protein, Escherichia coli, UniProt P0ACJ8 1-210, looked up)
chain: MVLGKPQTDPTLEWFLSHCHIHKYPSKSTLIHQGEKAETLYYIVKGSVAVLIKDEEGKEMILSYLNQGDFIGELGLFEEGQERSAWVRAKTACEVAEISYKKFRQLIQVNPDILMRLSAQMARRLQVTSEKVGNLAFLDLTGRIAQTLLNLAKQPDAMTHPDGMQIKITRQEIGQIVGCSRETVGRILKMLEDQNLISAHGKTIVVYGTR
B5: CAP V132A (natural protein, Escherichia coli, UniProt P0ACJ8 1-210, looked up)
chain: MVLGKPQTDPTLEWFLSHCHIHKYPSKSTLIHQGEKAETLYYIVKGSVAVLIKDEEGKEMILSYLNQGDFIGELGLFEEGQERSAWVRAKTACEVAEISYKKFRQLIQVNPDILMRLSAQMARRLQVTSEKAGNLAFLDVTGRIAQTLLNLAKQPDAMTHPDGMQIKITRQEIGQIVGCSRETVGRILKMLEDQNLISAHGKTIVVYGTR
B6: CAP V132L (natural protein, Escherichia coli, UniProt P0ACJ8 1-210, looked up)
chain: MVLGKPQTDPTLEWFLSHCHIHKYPSKSTLIHQGEKAETLYYIVKGSVAVLIKDEEGKEMILSYLNQGDFIGELGLFEEGQERSAWVRAKTACEVAEISYKKFRQLIQVNPDILMRLSAQMARRLQVTSEKLGNLAFLDVTGRIAQTLLNLAKQPDAMTHPDGMQIKITRQEIGQIVGCSRETVGRILKMLEDQNLISAHGKTIVVYGTR

Target: the molecule itself
Assay: crystal structure; homodimer in crystals grown at pH 6.5 with 7-10% PEG 3350, 15-20% 2-methyl-2,4-pentanediol and 2 mM cAMP; cAMP-bound protein

Binding result, binds:
B1
B2
B3
B4
B5
B6
